Series [1] is described as follows: Micro-CT 2D X-ray snapshot imaging of contrast media solutions in tubes. On the procedure: Prior to the in vivo injection of CT contrast media (250 mg/mL) including Compounds 1c, 2c, 3c, or 4c of Examples 1 to 4 prepared in the Preparation Step, 2D X-ray snapshot images of these solutions and two commercially available CT contrast media each for human or animal application were obtained using micro-CT to compare their relative X-ray absorption in tubes under the same conditions as a preliminary evaluation.
Overall, eight 250 μL-tubes were prepared each containing the following: 250 μL each of four CT contrast media prepared in the Preparation Step, 250 μL of “Fenestra VC”, 250 μL of “Iobrix”, 250 μL of 20 mM Tris buffer solution (pH 7.4, 0.1 mg/mL EDTA included) as a negative control group, and one empty tube as a negative control group. These eight tubes were then arranged side by side in parallel on the imaging bed of a NFR Polaris-G90 in vivo micro-CT scanner (manufacturer: NanoFocusRay), and 2D X-ray snapshot images were taken [imaging parameters: 60 kVp, 60 μA, 500 ms exposure time, field of view (FOV) 80.00×83.71 mm^2, 1.4× magnification].

For series [2], the system named is Human epithelial cervical cancer (HeLa) cell line. The series is classed as cell-based. Conditions: HeLa cells. On the procedure:
Human epithelial cervical cancer (HeLa) cell line was obtained from American Type Culture Collection (ATCC, Manassas, Va.) and maintained at 37° C. under a 5% carbon dioxide (CO2) atmosphere in Dulbecco's modified eagle medium (DMEM, Gibco) supplemented with 10% fetal bovine serum (FBS), 50 U/mL penicillin, and 50 μg/mL streptomycin. Stock solutions of PAMAM-PEG2000-TIPAA conjugate Compounds 1c-4c were prepared by dissolving 10 mg of each vacuum-dried solid sample in 1.0 mL of deionized water (Millipore Milli-Q) to make a 10 mg/mL solution. Each stock solution was sonicated briefly to ensure homogeneity. Serial dilutions were carried out using serum-free DMEM to prepare samples of the following concentrations: 1, 5, 10, 50, 100, and 500 μg/mL. HeLa cells were seeded in a flat bottomed 96-well plate (Corning Costar, Cambridge, Mass.) at a density of 1×10^3 cells per well and incubated for 24 hours at 37° C. under a 5% CO2 atmosphere to allow cell attachment. Cells were treated with 100 μL of each dilution or 100 μL of serum-free DMEM (as a control) per well and incubated at 37° C. under a 5% CO2 atmosphere for 24, 48, or 72 hours. The formulations were replaced with serum-free DMEM containing 5 mg/mL 3-(4,5-dimethylthiazol-2-yl)-2,5-diphenyltetrazolium bromide (MTT) and cells were incubated for additional 4 hours. MTT was removed by aspiration and DMSO (100 μL) was added to each well to dissolve the formazan crystals [Mosmann, T., J. Immunol. Methods 1983, 65, 55-63]. Assays were carried out in quadruplicates.

In a further series the test system is C57BL/6 mice. The series is described as follows: In vivo micro-CT imaging evaluation. On the procedure:
Specifically, 6 to 8 weeks old healthy male C57BL/6 mice (Orient Bio, Korea) having the weight typically ranging from 15 g to 22 g were used as small animals. Each mouse was not fed water and food starting from approximately 12 hours before the injection of the contrast medium until the completion of CT imaging at 4 hours post-injection. The mice were fed water and food immediately after the completion of CT imaging at 4 hours post-injection. Before the injection of the contrast media, each mouse was anaesthetized in an induction chamber by administering 3% isoflurane in oxygen for about 5 minutes. Subsequently, the mouse was placed onto the imaging bed of a NFR Polaris-G90 in vivo micro-CT scanner (NanoFocusRay, Korea) lying in a prone position, and then the baseline (i.e., pre-contrast) scan was performed as a negative control group while being anesthesized by administering 1.5% isoflurane in oxygen [imaging parameters: 60 kVp, 60 μA, 500 ms exposure time, 360° scan angle, 600 scan number, 512 slices (i.e., image number); FOV: 80.00×83.71 mm^2 for low resolution whole-body imaging (1.4× magnification), 33.94×35.52 mm^2 for mid resolution chest and abdominal imaging (3.3× magnification), and 26.67×27.90 mm^2 for high resolution brain imaging (4.2× magnification)]. Next, the tail vein of the mouse was expanded by immersing the tail in a warm water for about 30 to 60 seconds while maintaining the mouse under anesthesia by administering 1.5% isoflurane in oxygen, and the corresponding amount of each contrast medium (15 mL/kg for the contrast media including the compounds of Examples 1 to 4, 10 mL/kg for “Fenestra VC”, and 2.5 mL/kg for “Iobrix”) was slowly injected into the tail vein of each mouse. Immediately after the injection of the contrast medium, the mouse was placed onto the imaging bed of a micro-CT scanner lying in a prone position, and the CT scan was performed at the corresponding resolution (low, mid, or high) while being anesthesized by administering 1.5% isoflurane in oxygen. […]

The format of series [3] is physicochemical. On the procedure:
(§1) Sample solutions for in vivo injections as CT contrast agents were prepared by dissolving each PAMAM-PEG2000-TIPAA conjugate (Compound 1c, 2c, 3c, or 4c) at 250 mg/mL in the sterilized 20 mM Tris buffer (242 mg tromethamine and 10 mg EDTA dissolved in 100 mL of deionized water (Millipore Milli-Q), pH 7.4). The resulting solution was sonicated briefly to ensure homogeneity and stored at 4° C., if not used immediately. Before the injection to the animal, the contrast agent solutions were removed from the fridge, warmed to room temperature, and agitated by vortex.
The results of the viscosity (30° C.) and osmolality measurements of the CT contrast media solutions of the present invention are summarized in the following Table 1.
In Table 1, the values are presented as the mean±standard deviation. Five independent measurements were made for each compound under the same conditions, and the mean and standard deviation were calculated after excluding the highest and lowest values (i.e., 3 data).

A short description of series [4]: Dissolving the compound in buffer solution for a contrast medium. The format is physicochemical. Particulars: concentration appropriate for CT imaging. On the procedure: as §1
The mark [5] stands for this setting: 250 μL in tube, 2D X-ray snapshot, 60 kVp, 60 μA, own media 250 mg/mL.
[6] abbreviates: incubated for 72 hours, 500 μg/mL, MTT.
Setting [7] is: 250 mg/mL in 20 mM Tris buffer pH 7.4, mean±standard deviation.
Setting [8] is: 30° C., 250 mg/mL in 20 mM Tris buffer pH 7.4, mean±standard deviation.

Read-outs that look alike come from different tables or passages of the source.

In the case of “G1 PAMAM-mPEG2000-TIPAA Conjugate [Example 1]”, in series [1] (setting [5]), the X-ray transmission intensity came out at 904.5. This substance came in with a cell survival rate in series [2] (setting [6]) of 88.5%. The “amount found in the kidney” value in the series with C57BL/6 mice (mice, images at 1 hour after injection) is reported as “a considerable amount thereof was found in the kidney within a relatively short period of time”. In addition, the “excretion (route and rate)” value with C57BL/6 mice (mice, tail vein injection, whole-body CT images) is “mostly through kidney to bladder”. In series [3] (setting [7]), this substance had an Osmolality of 464.75 ± 3.59 mOsm/kg. This substance showed a Viscosity in series [3] (setting [8]) of 15.32 ± 0.39 mPa · s.
As to “G2 PAMAM-mPEG2000-TIPAA Conjugate [Example 2]”, the X-ray transmission intensity in series [1] is given as 838.0. The substance also had a cell survival rate in series [2] (human, 72 h, 500 µg/mL) of 88.4%. In series [3] (pH 7.4), the Osmolality came to 233.50 ± 9.75 mOsm/kg and the Viscosity was found to be 16.47 ± 0.80 mPa · s.
The corresponding values for “G3 PAMAM-mPEG2000-TIPAA Conjugate [Example 3]” are 826.5, 88.4%, 225.75 ± 1.26 mOsm/kg and 16.15 ± 0.53 mPa · s.
“G4 PAMAM-mPEG2000-TIPAA Conjugate [Example 4]” showed a X-ray transmission intensity in series [1] (setting [5]) of 827.0. The substance further came in with a cell survival rate in series [2] (setting [6]) of 87.9%. In the series on C57BL/6 mice (during injection), the “thickness of contrast medium solution felt during the injection” value is listed as “felt thicker than Compound 2c of Example 2 or Compound 3c of Example 3”. This substance also displayed an Osmolality in series [3] (setting [7]) of 242.00 ± 4.08 mOsm/kg. Further, in series [3] (setting [8]), the Viscosity is listed as 16.31 ± 0.61 mPa · s. In series [4], the “ease of dissolving in a buffer solution” value is listed as “more difficult to dissolve”.

For the origin of these results see patent publication US9387267B2, “Iodine-containing radial-shaped macromolecular compounds, preparation method thereof and contrast media compositions for CT comprising the same” (KOREA RESEARCH INSTITUTE OF BIOSCIENCE AND BIOTECHNOLOGY, priority 2010, dated 2016).
